Tested on: Escherichia coli TOP10
Test: shrunken log2 fold change of peptide-encoding DNA abundance (4.5 h post-induction vs induction); higher = less antimicrobial activity (less host growth inhibition)
Details: time post-induction: 4.5 h; library: site-saturation at positions 5, 18, 19, 20
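Also: peptides expressed intracellularly from a pBAD plasmid library in pooled LB shake-flask culture, induced with 0.3% L-arabinose, DNA abundance read by NGS, three biological replicates, DESeq2 with apeglm shrinkage.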

Sequence | shrunken log2 fold change
RRIRIRPPRLPRPRPRPMIDPRP | -1.15
RRIRIRPPRLPRPRPRPMLLPRP | 0.0902
RRIRIRPPRLPRPRPRPMLTPRP | -0.00363
RRIRIRPPRLPRPRPRPMMNPRP | -0.442
RRIRIRPPRLPRPRPRPMNHPRP | -0.348
RRIRIRPPRLPRPRPRPMNSPRP | -0.191
RRIRIRPPRLPRPRPRPMPHPRP | -0.0728
RRIRIRPPRLPRPRPRPMPRPRP | 0.0826
RRIRIRPPRLPRPRPRPMQFPRP | -0.343
RRIRIRPPRLPRPRPRPMQQPRP | 0.0184
RRIRIRPPRLPRPRPRPMQYPRP | -0.016
RRIRIRPPRLPRPRPRPMRMPRP | 0.0697
RRIRIRPPRLPRPRPRPMSEPRP | -0.00782
RRIRIRPPRLPRPRPRPMSHPRP | -0.0862
RRIRIRPPRLPRPRPRPMSWPRP | -0.402
RRIRIRPPRLPRPRPRPMTAPRP | -0.2
RRIRIRPPRLPRPRPRPMTPPRP | 0.0425
RRIRIRPPRLPRPRPRPMTQPRP | 0.0472
RRIRIRPPRLPRPRPRPMVAPRP | -0.14
RRIRIRPPRLPRPRPRPMVGPRP | 0.105
RRIRIRPPRLPRPRPRPMVTPRP | -0.018
RRIRIRPPRLPRPRPRPMWAPRP | -0.0316
RRIRIRPPRLPRPRPRPMWLPRP | -0.233
RRIRIRPPRLPRPRPRPMYHPRP | -0.839
RRIRIRPPRLPRPRPRPMYRPRP | -0.0946

Sequence | shrunken log2 fold change
RRIRIRPPRLPRPRPRPMYYPRP | -0.32
RRIRIRPPRLPRPRPRPNCEPRP | -0.525
RRIRIRPPRLPRPRPRPNCQPRP | -0.367
RRIRIRPPRLPRPRPRPNDKPRP | -0.647
RRIRIRPPRLPRPRPRPNDNPRP | -0.912
RRIRIRPPRLPRPRPRPNDWPRP | 0.0555
RRIRIRPPRLPRPRPRPNEKPRP | -0.0849
RRIRIRPPRLPRPRPRPNELPRP | -0.056
RRIRIRPPRLPRPRPRPNEVPRP | -0.346
RRIRIRPPRLPRPRPRPNFFPRP | 0.00639
RRIRIRPPRLPRPRPRPNGLPRP | 0.0383
RRIRIRPPRLPRPRPRPNICPRP | -0.147
RRIRIRPPRLPRPRPRPNIEPRP | -0.0607
RRIRIRPPRLPRPRPRPNIIPRP | -0.719
RRIRIRPPRLPRPRPRPNKCPRP | -0.438
RRIRIRPPRLPRPRPRPNKPPRP | -0.119
RRIRIRPPRLPRPRPRPNKYPRP | -0.932
RRIRIRPPRLPRPRPRPNMIPRP | -0.225
RRIRIRPPRLPRPRPRPNPKPRP | 0.0309
RRIRIRPPRLPRPRPRPNQNPRP | -0.391
RRIRIRPPRLPRPRPRPNRHPRP | -0.0899
RRIRIRPPRLPRPRPRPNSQPRP | -0.523
RRIRIRPPRLPRPRPRPNSSPRP | -0.369
RRIRIRPPRLPRPRPRPNTRPRP | -0.507
RRIRIRPPRLPRPRPRPNTVPRP | -1.09

Sequence | shrunken log2 fold change
RRIRIRPPRLPRPRPRPNWCPRP | -0.26
RRIRIRPPRLPRPRPRPNYFPRP | -0.749
RRIRIRPPRLPRPRPRPNYWPRP | -0.728
RRIRIRPPRLPRPRPRPPACPRP | 0.498
RRIRIRPPRLPRPRPRPPALPRP | 0.0147
RRIRIRPPRLPRPRPRPPANPRP | -0.0976
RRIRIRPPRLPRPRPRPPCEPRP | 0.00219
RRIRIRPPRLPRPRPRPPDLPRP | -0.00973
RRIRIRPPRLPRPRPRPPHMPRP | -0.416
RRIRIRPPRLPRPRPRPPIVPRP | -0.68
RRIRIRPPRLPRPRPRPPKAPRP | -0.0729
RRIRIRPPRLPRPRPRPPKKPRP | -0.114
RRIRIRPPRLPRPRPRPPKPPRP | 0.0539
RRIRIRPPRLPRPRPRPPLRPRP | 0.0855
RRIRIRPPRLPRPRPRPPMMPRP | 0.568
RRIRIRPPRLPRPRPRPPMNPRP | -0.368
RRIRIRPPRLPRPRPRPPMPPRP | -0.0926
RRIRIRPPRLPRPRPRPPNDPRP | -0.55
RRIRIRPPRLPRPRPRPPNNPRP | -0.637
RRIRIRPPRLPRPRPRPPNTPRP | -0.464
RRIRIRPPRLPRPRPRPPNWPRP | 0.0636
RRIRIRPPRLPRPRPRPPNYPRP | -0.923
RRIRIRPPRLPRPRPRPPPAPRP | 0.543
RRIRIRPPRLPRPRPRPPQDPRP | 0.0725
RRIRIRPPRLPRPRPRPPQGPRP | 0.123
